Laboratory results reported in PMC13228514, “The protocadherin-15-LHFPL5 tip link complex is a heterotetrameric assembly in hair cell stereocilia” (Biophysical Journal, 2026).

Key:
[1] = target: the molecule itself; test: single-molecule pull-down (SiMPull); purified co-expressed recombinant PCDH15/LHFPL5 complex (100 pM) captured on slide by biotinylated anti-PCDH15 mAb 8D1; detected with 39G7 Fab-GFP and anti-LHFPL5 mAb-Alexa647 (colocalization) or with 39G7 Fab-GFP or anti-LHFPL5 Fab-GFP (photobleaching steps); TIRF; buffer with 0.005% C12M, 0.001% CHS, pH 8.0
[2] = target: the molecule itself; test: single-molecule pull-down (SiMPull); solubilized cochlea supernatant of P6 mice applied to slide coated with anti-PCDH15 mAb 8D1; detected with 39G7 Fab-GFP and anti-LHFPL5 mAb-Alexa647 (colocalization) or with 39G7 Fab-GFP or anti-LHFPL5 Fab-GFP (photobleaching steps); TIRF

B1: recombinant lipoma HMGIC fusion partner-like protein 5 (LHFPL5), residues 2-219 (natural protein, Mus musculus, UniProt Q4KL25 2-219, looked up)
chain: VKLLPAQEAAKIYHTNYVRNSRAVGVMWGTLTICFSVLVMALFIQPYWIGDSVSTPQAGYFGLFSYCVGNVLSSELICKGGPLDFSSIPSRAFKTAMFFVALAMFLIIGSIICFSLFFVCNTATVYKICAWMQLAAATGLMIGCLVYPDGWDSSEVRRMCGEQTGKYTLGHCTIRWAFMLAILSIGDALILSFLAFVLGYRQDKLLPDDYKADGNEEV
notes: the results call the construct the full-length protein; also called TMHS; recombinant LHFPL5; source: HEK293 tsa201 cells co-infected with PCDH15 (or PCDH15_(1EC)) and LHFPL5 BacMam viruses; purified as a complex (Strep-Tactin, TALON, SEC)
stoichiometry N [1]: 2

B2: native protocadherin-15 (PCDH15) from mouse cochlea or utricle (natural protein)
chain: not shown
notes: protocadherin-15, mouse, endogenous in inner ear tissue; also called native PCDH15; source: endogenous, cochlea or utricle of P6 mice, solubilized (1% C12M, 0.2% CHS), supernatant
stoichiometry N [2]: 2

B3: native lipoma HMGIC fusion partner-like protein 5 (LHFPL5) from mouse cochlea or utricle (natural protein, UniProt Q4KL25 1-219, looked up)
chain: MVKLLPAQEAAKIYHTNYVRNSRAVGVMWGTLTICFSVLVMALFIQPYWIGDSVSTPQAGYFGLFSYCVGNVLSSELICKGGPLDFSSIPSRAFKTAMFFVALAMFLIIGSIICFSLFFVCNTATVYKICAWMQLAAATGLMIGCLVYPDGWDSSEVRRMCGEQTGKYTLGHCTIRWAFMLAILSIGDALILSFLAFVLGYRQDKLLPDDYKADGNEEV
notes: LHFPL5 (TMHS), mouse, endogenous in inner ear tissue; also called native LHFPL5; TMHS; source: endogenous, cochlea or utricle of P6 mice, solubilized (1% C12M, 0.2% CHS), supernatant
stoichiometry N [2]: 2

B4: recombinant protocadherin-15 (PCDH15), residues 1-1462 (EC1-EC11 and part of the cytoplasmic region) (domain or fragment)
chain: not shown
notes: signal peptide in the construct; also called recombinant PCDH15; source: HEK293 tsa201 cells co-infected with PCDH15 and LHFPL5 BacMam viruses; purified as a complex with LHFPL5 (Strep-Tactin, TALON, SEC)
stoichiometry N [1]: 2
